Measured values from IntAct's records for PubMed 24510189.

B1: mRNA-decapping enzyme 1A (Homo sapiens), Q9NPI6 (parent)
chain: MEALSRAGQEMSLAALKQHDPYITSIADLTGQVALYTFCPKANQWEKTDIEGTLFVYRRSASPYHGFTIVNRLNMHNLVEPVNKDLEFQLHEPFLLYRNASLSIYSIWFYDKNDCHRIAKLMADVVEEETRRSQQAARDKQSPSQANGCSDHRPIDILEMLSRAKDEYERNQMGDSNISSPGLQPSTQLSNLGSTETLEEMPSGSQDKSAPSGHKHLTVEELFGTSLPKEQPAVVGLDSEEMERLPGDASQKEPNSFLPFPFEQLGGAPQSETLGVPSAAHHSVQPEITTPVLITPASITQSNEKHAPTYTIPLSPVLSPTLPAEAPTAQVPPSLPRNSTMMQAVKTTPRQRSPLLNQPVPELSHASLIANQSPFRAPLNVTNTAGTSLPSVDLLQKLRLTPQHDQIQTQPLGKGAMVASFSPAAGQLATPESFIEPPSKTAAARVAASASLSNMVLAPLQSMQQNQDPEVFVQPKVLSSAIPVAGAPLVTATTTAVSSVLLAPSVFQQTVTRSSDLERKASSPSPLTIGTPESQRKPSIILSKSQLQDTLIHLIKNDSSFLSTLHEVYLQVLTKNKDNHNL
partner: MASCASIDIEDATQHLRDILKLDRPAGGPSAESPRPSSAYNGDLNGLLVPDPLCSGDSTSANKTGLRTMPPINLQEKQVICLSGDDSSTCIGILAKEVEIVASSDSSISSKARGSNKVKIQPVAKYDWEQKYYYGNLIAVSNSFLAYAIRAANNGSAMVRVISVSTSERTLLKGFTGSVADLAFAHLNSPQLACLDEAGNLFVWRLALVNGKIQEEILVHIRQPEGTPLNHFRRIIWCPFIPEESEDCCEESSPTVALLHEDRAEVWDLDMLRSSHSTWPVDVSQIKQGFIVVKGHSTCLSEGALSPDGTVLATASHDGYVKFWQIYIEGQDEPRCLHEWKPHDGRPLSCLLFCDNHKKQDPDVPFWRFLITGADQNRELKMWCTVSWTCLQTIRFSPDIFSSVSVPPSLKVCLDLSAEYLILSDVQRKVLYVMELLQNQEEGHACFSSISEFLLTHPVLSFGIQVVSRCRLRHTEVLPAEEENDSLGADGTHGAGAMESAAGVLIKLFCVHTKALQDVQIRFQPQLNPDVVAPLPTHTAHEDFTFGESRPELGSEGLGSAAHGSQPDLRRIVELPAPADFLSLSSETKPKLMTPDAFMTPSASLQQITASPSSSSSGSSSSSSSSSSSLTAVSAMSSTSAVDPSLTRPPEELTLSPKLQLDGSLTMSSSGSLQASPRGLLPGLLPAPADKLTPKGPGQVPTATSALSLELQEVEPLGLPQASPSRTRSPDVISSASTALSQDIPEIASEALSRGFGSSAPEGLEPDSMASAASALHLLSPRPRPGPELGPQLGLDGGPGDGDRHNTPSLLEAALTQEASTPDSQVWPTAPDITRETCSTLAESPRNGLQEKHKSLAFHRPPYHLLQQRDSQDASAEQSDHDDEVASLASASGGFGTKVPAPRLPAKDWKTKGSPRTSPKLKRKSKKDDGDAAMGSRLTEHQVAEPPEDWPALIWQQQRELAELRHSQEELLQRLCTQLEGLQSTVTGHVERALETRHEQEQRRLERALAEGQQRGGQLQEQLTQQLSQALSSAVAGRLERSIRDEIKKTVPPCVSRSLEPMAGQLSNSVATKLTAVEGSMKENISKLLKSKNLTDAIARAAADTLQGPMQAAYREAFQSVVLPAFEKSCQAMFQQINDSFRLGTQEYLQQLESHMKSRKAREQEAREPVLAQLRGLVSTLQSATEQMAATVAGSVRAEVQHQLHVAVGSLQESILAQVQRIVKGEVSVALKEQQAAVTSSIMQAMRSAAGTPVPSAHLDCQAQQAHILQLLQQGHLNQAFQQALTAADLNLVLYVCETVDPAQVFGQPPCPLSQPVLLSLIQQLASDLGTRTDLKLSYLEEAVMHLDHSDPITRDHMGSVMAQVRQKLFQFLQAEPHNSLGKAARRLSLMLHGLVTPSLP
B2: mRNA-decapping enzyme 1A (Homo sapiens), Q9NPI6 (parent)
chain: B1 chain

Variants of: B1
Details: with edc4_human EDC4, Q6P2E9

Row | effect of a mutation on the interaction | Variant
1 | with no effect | H19A
2 | disrupting interaction strength | L554S;F561R;L565S
3 | with no effect | R72G

Variants of: B2
Details: with dcp2_human DCP2, Q8IU60

Row | effect of a mutation on the interaction | Variant
4 | with no effect | L4E;A14Q

Variants of: B2
Details: with pnrc2_human PNRC2, Q9NPJ4
Chain of pnrc2_human PNRC2, Q9NPJ4 (Q9NPJ4 whole entry): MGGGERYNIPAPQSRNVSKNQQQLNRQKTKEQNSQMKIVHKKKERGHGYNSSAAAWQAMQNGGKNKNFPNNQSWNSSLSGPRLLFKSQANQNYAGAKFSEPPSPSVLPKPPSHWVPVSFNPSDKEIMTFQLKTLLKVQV

Row | effect of a mutation on the interaction | Variant
5 | with no effect | S12A;Q18A;H19A
6 | with no effect | R72G;L73S;N74S;M75G
7 | with no effect | R72G;N74G

Variants of: B2
Details: with dcp2_human DCP2, Q8IU60
Remark: another data set of the same source

Row | effect of a mutation on the interaction | Variant
8 | disrupting interaction strength | S12A;Q18A;H19A
9 | disrupting interaction strength | L554S;F561R;L565S
10 | with no effect | H19A
11 | decreasing interaction strength | S12A;H19A
12 | decreasing interaction strength | Q18A;H19A

Variants of: B2
Details: with dcp2_human DCP2, Q8IU60
Remark: another data set of the same source

Row | effect of a mutation on the interaction | Variant
13 | disrupting interaction strength | L554S;F561R;L565S
14 | with no effect | N74G
15 | with no effect | R72G;L73S;N74S;M75G
16 | with no effect | R72G
